Data published in PMC7160150, “Transcriptional repression of GIF1 by the KIX-PPD-MYC repressor complex controls seed size in Arabidopsis”.

Experiments:
MBP-MYC4 [1] = biological target: T1, MBP-MYC4 (Arabidopsis thaliana (Col-0), UniProt O49687 1-589); assay: EMSA; EMSA kit (Thermo), room temperature, 20 min; binding buffer not stated (protein extraction buffer: 50 mM HEPES pH 7.5, 150 mM NaCl, 1 mM EGTA, 1% Triton X-100); details: protein: recombinant; tags: MBP; chain copies: 2; label: 5'-biotin
T1 sequence (O49687 whole entry): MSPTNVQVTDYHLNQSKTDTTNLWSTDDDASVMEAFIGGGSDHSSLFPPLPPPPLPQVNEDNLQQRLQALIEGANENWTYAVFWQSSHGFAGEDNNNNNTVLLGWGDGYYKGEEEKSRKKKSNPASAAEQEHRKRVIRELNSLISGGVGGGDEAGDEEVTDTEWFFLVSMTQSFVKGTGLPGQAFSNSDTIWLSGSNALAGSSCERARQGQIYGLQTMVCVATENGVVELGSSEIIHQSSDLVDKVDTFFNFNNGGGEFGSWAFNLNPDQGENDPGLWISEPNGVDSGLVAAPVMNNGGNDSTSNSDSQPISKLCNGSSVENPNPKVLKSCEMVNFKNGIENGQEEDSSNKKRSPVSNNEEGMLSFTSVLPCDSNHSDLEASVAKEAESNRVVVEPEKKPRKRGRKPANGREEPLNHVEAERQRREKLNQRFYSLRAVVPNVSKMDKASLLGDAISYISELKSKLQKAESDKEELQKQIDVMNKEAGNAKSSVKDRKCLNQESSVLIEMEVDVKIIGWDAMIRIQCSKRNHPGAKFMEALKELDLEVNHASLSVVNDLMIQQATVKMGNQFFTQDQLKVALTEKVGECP

MBP-MYC3 [2] = biological target: T2, MBP-MYC3 (Arabidopsis thaliana (Col-0), UniProt Q9FIP9 1-592); assay: as above; details: protein: recombinant; tags: MBP; chain copies: 2; label: 5'-biotin
T2 sequence (Q9FIP9 whole entry): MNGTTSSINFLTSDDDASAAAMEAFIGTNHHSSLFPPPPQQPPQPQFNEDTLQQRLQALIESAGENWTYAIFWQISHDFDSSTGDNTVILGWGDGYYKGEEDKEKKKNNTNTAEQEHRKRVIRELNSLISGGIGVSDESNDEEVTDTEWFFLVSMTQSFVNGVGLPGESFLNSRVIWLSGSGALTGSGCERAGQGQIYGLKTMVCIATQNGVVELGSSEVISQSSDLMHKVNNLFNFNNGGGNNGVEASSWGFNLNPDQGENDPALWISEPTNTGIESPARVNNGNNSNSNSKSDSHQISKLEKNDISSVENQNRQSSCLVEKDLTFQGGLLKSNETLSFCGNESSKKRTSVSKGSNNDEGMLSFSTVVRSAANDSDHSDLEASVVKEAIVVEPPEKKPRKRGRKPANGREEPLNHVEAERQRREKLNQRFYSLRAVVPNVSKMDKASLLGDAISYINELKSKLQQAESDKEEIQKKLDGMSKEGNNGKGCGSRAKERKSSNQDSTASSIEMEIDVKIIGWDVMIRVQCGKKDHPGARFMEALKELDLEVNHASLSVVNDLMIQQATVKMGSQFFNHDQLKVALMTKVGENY

MBP-MYC4 [3] = biological target: T1, MBP-MYC4; assay: competition; competes with biotin probe A; EMSA kit (Thermo), room temperature, 20 min; binding buffer not stated (protein extraction buffer: 50 mM HEPES pH 7.5, 150 mM NaCl, 1 mM EGTA, 1% Triton X-100); details: protein: recombinant; tags: MBP; chain copies: 2
MBP-MYC3 [4] = biological target: T2, MBP-MYC3; assay: as above; details: protein: recombinant; tags: MBP; chain copies: 2

B1: probe A-m (dsDNA)
DNA 1: TAAAGTATGACTCGTAGCCGTACCTCCTCTTCTTCGC
DNA 2: GCGAAGAAGAGGAGGTACGGCTACGAGTCATACTTTA
binding result (MBP-MYC4 [1]): no binding | binding result (MBP-MYC3 [2]): no binding

B2: probe A (dsDNA)
DNA 1: TAAAGTATGACTCGTCACGTGACCTCCTCTTCTTCGC
DNA 2: GCGAAGAAGAGGAGGTCACGTGACGAGTCATACTTTA
binding result (MBP-MYC4 [1]): binds | binding result (MBP-MYC3 [2]): binds

B3: unlabelled probe A (dsDNA)
DNA 1: TAAAGTATGACTCGTCACGTGACCTCCTCTTCTTCGC
DNA 2: GCGAAGAAGAGGAGGTCACGTGACGAGTCATACTTTA
binding result (MBP-MYC4 [3]): binds | binding result (MBP-MYC3 [4]): binds
